From the RNAGym collection of RNA variant scans (doi:10.7554/elife.80360)

B1: HDV Ribozyme (parent)
chain: GGCCGGCAUGGUCCCAGCCUCCUCGCUGGCGCCGGCUGGGCAACAUUCCGAGGGGACCGUCCCCUCGGUAAUGGCGAAUGGGACCCA

Variants of: B1
Assay: self-cleavage, relative activity (ratio to wild type); higher = more cleavage; co-transcriptional

Row | Variant | self-cleavage
1 | GGCCGGCAUGGUCCCAGCCUCCUCGCUGGCGCCGGAUGGGCAACAAUCCGAGGGGACCGUCCCCUCGGUAAUGGCGAAUGGGACCCA [C36A U46A] | 0.244
2 | GGCCGGCAUGGUCCCAGCCUCCUCGCUGGCGCCGGGUGGGCAACAUUCCGAGGGGACCGUCCCAUCGGUAAUGGCGAAUGGGACCCA [C36G C64A] | 0.259
3 | GGCCGGCAUGGUCCCAGCCUCCUCGCUGGCGCCGGAUGGGCAACAUUCCGAGGGGACCAUCCCCUCGGUAAUGGCGAAUGGGACCCA [C36A G59A] | 0.164
4 | GGCCGGCAUGGUCCCAGCCUCCUCGCUGGCGCCGGAUGGGCAACAUUCCGAGGGAACCGUCCCCUCGGUAAUGGCGAAUGGGACCCA [C36A G55A] | 0.188
5 | GGCCGGCAUGGUCCCAGCCUCCUCGCUGGCGCCGGAUGGGCAACAUUCCGAGGGGACCGUCCCCUCGGUAAUGGCUAAUGGGACCCA [C36A G76U] | 0.119
6 | GGCCGGCAUGGUCCCAGCCUCCUCGCUGGCGCCGGGUGGGCAACAUUCCGAGGGGACCGUCCCCUCGGUAAUGGCGACUGGGACCCA [C36G A78C] | 0.161
7 | GGCCGGCAUGGUCCCAGCCUCCUCGCUGGCGCCGGGUGGGCAACAUUCCGAGGGGCCCGUCCCCUCGGUAAUGGCGAAUGGGACCCA [C36G A56C] | 0.158
8 | GGCCGGCAUGGUCCCAGCCUCCUCGCUGGCGCCGGGUGGGCAACAUUCCGAGGGGGCCGUCCCCUCGGUAAUGGCGAAUGGGACCCA [C36G A56G] | 0.0594
9 | GGCCGGCAUGGUCCCAGCCUCCUCGCUGGCGCCGGGUGGGCAACAUUCCGAGGGGUCCGUCCCCUCGGUAAUGGCGAAUGGGACCCA [C36G A56U] | 0.111
10 | GGCCGGCAUGGUCCCAGCCUCCUCGCUGGCGCCGGGUGGGGAACAUUCCGAGGGGACCGUCCCCUCGGUAAUGGCGAAUGGGACCCA [C36G C41G] | 0.151
11 | GGCCGGCAUGGUCCCAGCCUCCUCGCUGGCGCCGGGUGGGCAACAUUCGGAGGGGACCGUCCCCUCGGUAAUGGCGAAUGGGACCCA [C36G C49G] | 0.0773
12 | GGCCGGCAUGGUCCCAGCCUCCUCGCUGGCGCCGGGUGGGCAACAUUCUGAGGGGACCGUCCCCUCGGUAAUGGCGAAUGGGACCCA [C36G C49U] | 0.0811
13 | GGCCGGCAUGGUCCCAGCCUCCUCGCUGGCGCCGGGUGGGCAGCAUUCCGAGGGGACCGUCCCCUCGGUAAUGGCGAAUGGGACCCA [C36G A43G] | 0.0519
14 | GGCCGGCAUGGUCCCAGCCUCCUCGCUGGCGCCGGGUGGGCACCAUUCCGAGGGGACCGUCCCCUCGGUAAUGGCGAAUGGGACCCA [C36G A43C] | 0.166
15 | GGCCGGCAUGGUCCCAGCCUCCUCGCUGGCGCCGGGUGGGCAACAUUCCGAGGGGACCGUCCCCUCGGUCAUGGCGAAUGGGACCCA [C36G A70C] | 0
16 | GGCCGGCAUGGUCCCAGCCUCCUCGCUGGCGCCGGGUGGGCAACAUUCCGAGGGGACCGUCCCCUCGGUAAUGGCGAAUGGGUCCCA [C36G A83U] | 0.113

Row | Variant | self-cleavage
17 | GGCCGGCAUGGUCCCAGCCUCCUCGCUGGCGCCGGAUGGGCAACAUUCCGAGGGGACCGUCCCCUCGGUAAUAGCGAAUGGGACCCA [C36A G73A] | 0.104
18 | GGCCGGCAUGGUCCCAGCCUCCUCGCUGGCGCCGGAUGGGCAACAUUCCGAGGGGACCGUCCCCUCGGUAAUUGCGAAUGGGACCCA [C36A G73U] | 0.0583
19 | GGCCGGCAUGGUCCCAGCCUCCUCGCUGGCGCCGGAUGGGCAACAUUCCGAGGGGACCGUCCCCUCCGUAAUGGCGAAUGGGACCCA [C36A G67C] | 0.208
20 | GGCCGGCAUGGUCCCAGCCUCCUCGCUGGCGCCGGAUGGGCAACAUUCCGAGGGGACCGUCCCCUCAGUAAUGGCGAAUGGGACCCA [C36A G67A] | 0.126
21 | GGCCGGCAUGGUCCCAGCCUCCUCGCUGGCGCCGGAUGGGCAACAUUCCGAGGGGACCGUCCCCUCUGUAAUGGCGAAUGGGACCCA [C36A G67U] | 0.155
22 | GGCCGGCAUGGUCCCAGCCUCCUCGCUGGCGCCGGGUGGGCAACAUUCCGAGGGGACCGUCCUCUCGGUAAUGGCGAAUGGGACCCA [C36G C63U] | 0.213
23 | GGCCGGCAUGGUCCCAGCCUCCUCGCUGGCGCCGGAUGGGCAACAUUCCGAGGGGACCGUCCCCUCGGUAAUGGCGAAUGGCACCCA [C36A G82C] | 0.112
24 | GGCCGGCAUGGUCCCAGCCUCCUCGCUGGCGCCGGAAGGGCAACAUUCCGAGGGGACCGUCCCCUCGGUAAUGGCGAAUGGGACCCA [C36A U37A] | 0.0831
25 | GGCCGGCAUGGUCCCAGCCUCCUCGCUGGCGCCGGACGGGCAACAUUCCGAGGGGACCGUCCCCUCGGUAAUGGCGAAUGGGACCCA [C36A U37C] | 0.489
26 | GGCCGGCAUGGUCCCAGCCUCCUCGCUGGCGCCGGAGGGGCAACAUUCCGAGGGGACCGUCCCCUCGGUAAUGGCGAAUGGGACCCA [C36A U37G] | 0.256
27 | GGCCGGCAUGGUCCCAGCCUCCUCGCUGGCGCCGGAUGGGCAACAUCCCGAGGGGACCGUCCCCUCGGUAAUGGCGAAUGGGACCCA [C36A U47C] | 0.0519
28 | GGCCGGCAUGGUCCCAGCCUCCUCGCUGGCGCCGGAUGGGCAACAUGCCGAGGGGACCGUCCCCUCGGUAAUGGCGAAUGGGACCCA [C36A U47G] | 0.208
29 | GGCCGGCAUGGUCCCAGCCUCCUCGCUGGCGCCGGAUGGGCAACAUUCCGAGGGGACCGUCCCCUCGGUAAUGGCGAAUAGGACCCA [C36A G80A] | 0.12
30 | GGCCGGCAUGGUCCCAGCCUCCUCGCUGGCGCCGGAUGGGCAACAUUCCGAGGGGACCGUCCCCCCGGUAAUGGCGAAUGGGACCCA [C36A U65C] | 0.095
31 | GGCCGGCAUGGUCCCAGCCUCCUCGCUGGCGCCGGAUGGGCAACAUUCCGAGGGGACCGUCCCCACGGUAAUGGCGAAUGGGACCCA [C36A U65A] | 0.163
32 | GGCCGGCAUGGUCCCAGCCUCCUCGCUGGCGCCGGAUGGGCAACAUUCCGAGGGGACCGUCCCCUCGGUAAUGGCGAAUGAGACCCA [C36A G81A] | 0.138
